Columns and labels:
E.G7-OVA tumor cells = test: E.G7-OVA tumor growth after immunization with tumor antigen and migration inducer; assay type: in vivo, C57BL/6 mice
Source text: The tumor cell, E.G7-OVA, is the C57BL/6 EL4 thymoma transfected with the complete gene for chicken ovalbumin (OVA). The transfected cell line expresses OVA protein, which is also processed naturally by E.G7-OVA cells into an eight amino acid peptide, OVA257-264, with the sequence […]. […] Based on the positive results using FITC, the inventors followed a similar protocol in an attempt to induce immunity to the E.G7-OVA tumor by topical administration of the well-characterized, synthetic […] tumor-associated peptide.
C57BL/6 mice were treated as follows: 1) shaving alone; 2) topical administration of acetone and dibutyl phthalate; 3) topical administration of […] (240 μg/ml) in DMSO diluted in PBS, followed in 5 hours by acetone and dibutyl phthalate; and 4) topical administration of […] (240 μg/ml) in acetone and dibutyl phthalate. All mice were subsequently injected subcutaneously with 5×10^5 E.G7-OVA cells (5-times the minimal tumorogenic dose). Tumor-specific immunity was monitored by measuring the size of the developing tumor.
The mucous membranes lack the tough barrier posed by the stratum corneum of the skin. […] The EL4 parent tumor cell line, lacking chicken ovalbumin, was used as a negative control; no immunity against the EL4 tumor cells was seen. Thus, the inventors' hypothesis regarding penetration of the stratum corneum was confirmed; the […] peptide was not effectively reaching the immature dendritic cells, known as Langerhans cells, underlying the stratum corneum.
To enhance the effectiveness of cutaneous topical administration of peptide, […] was dissolved in DMSO and applied to the skin without further dilution. Dibutyl phthalate in a 50:50 mixture with acetone was applied to the same site 5 hr later. All mice were subsequently injected subcutaneously with 5×10^5 E.G7-OVA cells. The results shown in FIG. 6 indicate that the peptide in concentrated DMSO was apparently able to traverse the stratum corneum, effectively gaining access to the epidermal Langerhans cells. […] Thus, the tumor-specific peptide, […], in concentrated DMSO, penetrated the stratum corneum in sufficient concentration to be incorporated into the MHC class I molecule K^b on epidermal Langerhans cells, and in the presence of the migration inducer, dibutyl phthalate, was effectively presented to CD8+ CTLs in the draining lymph nodes.
To confirm the immunogenicity of the disclosed treatment, groups of 10 C57BL/6 mice were injected with 50 μl of 1.25 mM OVA protein in HBSS, with HBSS alone, or with nothing. This was followed an hour later by topical application of DBP in acetone or with nothing. One month later, the mice were inoculated subcutaneously with 5×10^5 EL4 tumor cells or with 5×10^5 E.G7-OVA tumor cells and subsequent tumor growth was measured.

MHC class I molecule K^b = biological target: T1, MHC class I molecule K^b (Mus musculus, UniProt P01901); test: […]:K^b complexes on primary epidermal Langerhans cells in vitro (mAb 25-D1.16 flow cytometry); assay type: cell-based, C57BL/6 mice; details: 1.5 hrs
T1 construct: endogenous in cells; host or cells: primary epidermal Langerhans cells from C57BL/6 dorsal ear skin explants
T1 sequence (P01901 22-369): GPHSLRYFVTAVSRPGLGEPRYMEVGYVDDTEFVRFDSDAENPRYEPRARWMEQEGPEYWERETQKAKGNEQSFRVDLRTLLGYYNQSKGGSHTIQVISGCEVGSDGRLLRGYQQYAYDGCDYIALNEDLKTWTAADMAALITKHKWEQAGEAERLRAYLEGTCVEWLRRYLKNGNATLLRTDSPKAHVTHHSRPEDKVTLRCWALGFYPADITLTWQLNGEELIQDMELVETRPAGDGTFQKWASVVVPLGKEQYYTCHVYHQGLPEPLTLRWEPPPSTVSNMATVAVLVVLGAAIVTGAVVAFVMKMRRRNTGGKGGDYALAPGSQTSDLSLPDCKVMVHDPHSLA
T1 sequence (P01887 21-119 partner): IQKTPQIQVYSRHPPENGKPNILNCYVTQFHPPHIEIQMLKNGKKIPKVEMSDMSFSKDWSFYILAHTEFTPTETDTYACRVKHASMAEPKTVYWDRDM
Source text: To evaluate the immunogenic potential of various vaccine formulations and delivery methods, an antigen system that permits quantitative determination of the number of specific peptide:MHC complexes expressed on the cell membrane was used. To date, the only direct way to quantitate antigenic epitopes expressed on living cells and recognized by T cells is with the use of monoclonal antibodies (mAbs) specific for individual peptide:MHC complexes. Chicken ovalbumin (OVA) is a 40 kDa protein that has been used for many years as a prototypic experimental antigen for immunologic studies. The OVA257-264 peptide, […] (963 Da), is processed and presented in the peptide-binding groove of the MHC class I molecule K^b. The mAb, 25-D1.16, has specificity for the […]:K^b complex (Porgador et al. 1997 Immunity 6:715–726).
Primary epidermal Langerhans cells were obtained from cultured explants of C57BL/6 dorsal ear skin according to the method of Ortner et al. (Ortner et al. 1996 J. Immunol. Meth. 193:71). Over a period of 72 hrs in culture, Langerhans cells mature and migrate out of the explant, dropping onto the bottom of the culture dish. These cells were harvested and incubated for 1.5 hrs at 37° C. with various concentrations of synthetic […] peptide. The cells were then washed and stained with a FITC-conjugated anti-MHC class II (I-A^b) mAb, as well as with affinity purified and biotinylated 25-D1.16 followed by PE-avidin, and analyzed on a FACScan® flow cytometer. Non-specific binding of immunoglobulin proteins was blocked by pre-incubation and staining of the cells in a mixture of isotype control mAbs (rat IgG2a, rat IgG2b, mouse IgG1 and mouse IgG2a, each at 100–200 μg/ml) and the anti-Fc receptor mAb 2.4G2. Langerhans cells were identified by their characteristic light scatter properties (high forward, moderate side scatter) and exceptionally high levels of MHC class II expression, with the latter used to optimize the light scatter gate for each experiment. Dead cells were excluded from analysis by their uptake of 7AAD (7-amino-actinomycin D).
Each data point represents the mean and S.E. of 3 to 5 independent experiments. […]
As stated previously, whether mature antigen-bearing dendritic cells will be encountered by and activate naive T cells in the lymph node is likely to depend not only on the number of antigen-bearing dendritic cells that enter the node, but also on the density of MHC:peptide complexes expressed on their membranes. To estimate the density of peptide:MHC complexes on the immigrant dendritic cells generated by this procedure, we compared the fluorescence intensity of various cell populations detected by the peptide:MHC-specific mAb, 25-D1.16, using identical staining conditions and flow cytometer settings. The results are shown in Table IV, providing the number of specific peptide:MHC complexes expressed on the plasma membrane of dendritic cells after various treatments in vitro or in vivo.

Sequence: SIINFEKL [eight amino acid peptide OVA257-264 of chicken ovalbumin, tumor-associated peptide antigen presented by K^b]
- protection against E.G7-OVA tumor (E.G7-OVA tumor cells; SIINFEKL in acetone and dibutyl phthalate applied to the vaginal epithelium (FIG. 5)): protection against the tumor was induced
- established E.G7-OVA tumors (E.G7-OVA tumor cells; SIINFEKL in undiluted DMSO on skin, dibutyl phthalate 50:50 acetone 5 hr later (FIG. 6)): diminished by 16 days post-inoculation
- E.G7-OVA tumor growth (E.G7-OVA tumor cells; SIINFEKL in undiluted DMSO on skin, dibutyl phthalate 50:50 acetone 5 hr later, 5×10^5 cells s.c. (FIG. 6)): suppressed after 6 to 9 days
- inhibition of E.G7-OVA tumor cell growth (E.G7-OVA tumor cells; cutaneous topical SIINFEKL 240 μg/ml in DMSO diluted in PBS then acetone and dibutyl phthalate, or in acetone and dibutyl phthalate, 5×10^5 cells s.c. (FIG. 4)): none of the treatment protocols were effective
- Median No. of Complexes/Cell (MHC class I molecule K^b; 0.1 nM SIINFEKL in vitro): 240 complexes/cell
- Median Specific Fl. Intensity (MHC class I molecule K^b; 0.1 nM SIINFEKL in vitro): 12
- Median No. of Complexes/Cell (MHC class I molecule K^b; 1.0 nM SIINFEKL in vitro): 1,600 complexes/cell
- Median Specific Fl. Intensity (MHC class I molecule K^b; 1.0 nM SIINFEKL in vitro): 80
- Median No. of Complexes/Cell (MHC class I molecule K^b; 10 nM SIINFEKL in vitro): 4,180 complexes/cell
- Median Specific Fl. Intensity (MHC class I molecule K^b; 10 nM SIINFEKL in vitro): 209
- Median No. of Complexes/Cell (MHC class I molecule K^b; 100 nM SIINFEKL in vitro): 11,160 complexes/cell
- Median Specific Fl. Intensity (MHC class I molecule K^b; 100 nM SIINFEKL in vitro): 558
- Median No. of Complexes/Cell (MHC class I molecule K^b; 1 μM SIINFEKL in vitro): 15,200 complexes/cell
- Median Specific Fl. Intensity (MHC class I molecule K^b; 1 μM SIINFEKL in vitro): 760

— patent US7229621B2, “Method to enhance the immunogenicity of an antigen” (Torrey Pines Institute for Molecular Studies, priority 1998, dated 2007)
